For assay [1], the target named is monkey CD3e (Macaca fascicularis) on PBMC (Macaca fascicularis) (UniProt Q95LI5). The experiment in a line: flow cytometry, Macaca fascicularis PBMC, negative control of unstated make-up.
Assay [2] concerns the target human CD3e (T-cell surface glycoprotein CD3 epsilon chain) (human) (UniProt P07766). The assay can be described thus: flow cytometry, human PBMC, negative control of unstated make-up. For orientation: Flow cytometry measures light scatter and fluorescence of single cells or particles in a stream.
Assay [3] deals with monkey CD3e (Macaca fascicularis) on PBMC (Macaca fascicularis) (UniProt Q95LI5). The experiment in a line: flow cytometry, Macaca fascicularis PBMC, control sample (Table 2: 1:400), AF647-anti-hIgG.
Assay [4] shares this target. The assay can be described thus: flow cytometry, Macaca fascicularis PBMC, control sample (Table 2: 1:400), AF647-anti-mIgG.
Assay [5] addresses human CD3e (T-cell surface glycoprotein CD3 epsilon chain) (human) (UniProt P07766). The experiment in a line: flow cytometry, human PBMC of subject 2 (PBMC human2#), negative control, AF647-anti-mIgG, PerCP anti-hTcRβ.
Assay [6] shares this target. The assay can be described thus: flow cytometry, human PBMC of subject 1 (PBMC human1#), negative control, AF647-anti-mIgG, PerCP anti-hTcRβ.

Chain of monkey CD3e (Macaca fascicularis) on PBMC (Macaca fascicularis) (Q95LI5 22-198 limits assumed): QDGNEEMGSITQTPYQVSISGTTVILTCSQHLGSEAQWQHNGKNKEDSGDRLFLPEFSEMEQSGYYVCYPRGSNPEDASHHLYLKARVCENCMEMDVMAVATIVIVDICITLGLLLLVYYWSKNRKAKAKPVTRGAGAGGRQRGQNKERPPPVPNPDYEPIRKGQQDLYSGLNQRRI

In the case of NC, the upper left quadrant, percent of cells AF647+ / hTcRβ-PerCP- stood at 0.162% in assay [1] and 0.24% in assay [2].

With hIgG (antibody), in assay [3], the FL4-H, SSC-H subset (percent of cells in the AF647-positive gate) was 3.27%.

In turn, mIgG (antibody) yielded an FL4-H, SSC-H subset (percent of cells in the AF647-positive gate) in assay [4] of 0.58%. In assay [5], this substance came in with a Q1, percent of cells AF647+ / hTcRβ-PerCP- of 0.0036% and a Q2, percent of cells AF647+ / hTcRβ-PerCP+ of 0.21%. Moreover, in assay [6], the Q1, percent of cells AF647+ / hTcRβ-PerCP- is 0.00361% and the Q2, percent of cells AF647+ / hTcRβ-PerCP+ was found to be 0.19%.
